Reference: patent publication US20240261333A1, “NOVEL TARGETS FOR ENHANCING ANTI-TUMOR IMMUNITY” (THE BROAD INSTITUTE, INC., priority 2021, published 2024)

Legend:
CASP14 (human) = CASP14 (human) (UniProt P31944); assay: co-IP/MS, IgG control IP of N-FLAG B3GNT2 cell lysate
RPS7 (human) = RPS7 (human) (UniProt P62081); assay: as above
CALML5 (human) = CALML5 (human) (UniProt Q9NZT1); assay: control IP with IgG, lysate of cells with C-FLAG B3GNT2, mass spectrometry
CCT3 (human) = CCT3 (human) (UniProt P49368); assay: as above
CHCHD3 (human) = CHCHD3 (human) (UniProt Q9NX63); assay: as above
DDX1 (human) = DDX1 (human) (UniProt Q92499); assay: as above
DHX9 (human) = DHX9 (human) (UniProt Q08211); assay: as above
EIF3A (human) = EIF3A (human) (UniProt Q14152); assay: as above
FLG (human) = FLG (human) (UniProt P20930); assay: as above
GBF1 (human) = GBF1 (human) (UniProt Q92538); assay: as above
GSN (human) = GSN (human) (UniProt P06396); assay: as above
IL13RA2 (human) = IL13RA2 (human) (UniProt Q14627); assay: as above
IMMT (human) = IMMT (human) (UniProt Q16891); assay: as above
KCTD5 (human) = KCTD5 (human) (UniProt Q9NXV2); assay: as above
LCN1 (human) = LCN1 (human) (UniProt P31025); assay: as above
LGALS7B (human) = LGALS7B (human) (UniProt P47929); assay: as above
MAP4 (human) = MAP4 (human) (UniProt P27816); assay: as above
RACK1 (human) = RACK1 (human) (UniProt P63244); assay: as above
RHOT2 (human) = RHOT2 (human) (UniProt Q8IXI1); assay: as above
RPL23 (human) = RPL23 (human) (UniProt P62829); assay: as above
RPL28 (human) = RPL28 (human) (UniProt P46779); assay: as above
RPL38 (human) = RPL38 (human) (UniProt P63173); assay: as above
RPL8 (human) = RPL8 (human) (UniProt P62917); assay: as above
RPS26 (human) = RPS26 (human) (UniProt P62854); assay: as above
RPS27A (human) = RPS27A (human) (UniProt P62979); assay: as above
S100A7 (human) = S100A7 (human) (UniProt P31151); assay: as above
SERPINB3 (human) = SERPINB3 (human) (UniProt P29508); assay: as above
SYNM (human) = SYNM (human) (UniProt O15061); assay: as above
SYNPO (human) = SYNPO (human) (UniProt Q8N3V7); assay: as above
TBL2 (human) = TBL2 (human) (UniProt Q9Y4P3); assay: as above
YBX1 (human) = YBX1 (human) (UniProt P67809); assay: as above
YTHDF2 (human) = molecular target: T1, YTHDF2 (human) (UniProt Q9Y5A9); assay: as above
T1 sequence (looked up): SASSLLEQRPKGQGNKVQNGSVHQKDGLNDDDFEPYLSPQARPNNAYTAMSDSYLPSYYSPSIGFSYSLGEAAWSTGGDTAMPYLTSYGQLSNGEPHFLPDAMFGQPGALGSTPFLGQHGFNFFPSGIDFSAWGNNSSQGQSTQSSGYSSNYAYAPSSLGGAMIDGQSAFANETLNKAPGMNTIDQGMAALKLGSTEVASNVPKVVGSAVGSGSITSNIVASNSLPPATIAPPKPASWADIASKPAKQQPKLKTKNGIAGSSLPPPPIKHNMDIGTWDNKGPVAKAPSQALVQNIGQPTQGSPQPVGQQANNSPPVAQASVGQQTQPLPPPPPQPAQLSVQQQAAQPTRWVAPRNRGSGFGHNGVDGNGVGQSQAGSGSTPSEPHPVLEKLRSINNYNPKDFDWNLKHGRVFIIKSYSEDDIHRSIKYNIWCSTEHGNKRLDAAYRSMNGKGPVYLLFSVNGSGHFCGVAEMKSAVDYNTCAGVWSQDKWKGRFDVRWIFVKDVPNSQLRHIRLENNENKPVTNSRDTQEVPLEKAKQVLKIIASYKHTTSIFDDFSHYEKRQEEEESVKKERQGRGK

Sequence of RHOT2 (human) (Q8IXI1 whole entry): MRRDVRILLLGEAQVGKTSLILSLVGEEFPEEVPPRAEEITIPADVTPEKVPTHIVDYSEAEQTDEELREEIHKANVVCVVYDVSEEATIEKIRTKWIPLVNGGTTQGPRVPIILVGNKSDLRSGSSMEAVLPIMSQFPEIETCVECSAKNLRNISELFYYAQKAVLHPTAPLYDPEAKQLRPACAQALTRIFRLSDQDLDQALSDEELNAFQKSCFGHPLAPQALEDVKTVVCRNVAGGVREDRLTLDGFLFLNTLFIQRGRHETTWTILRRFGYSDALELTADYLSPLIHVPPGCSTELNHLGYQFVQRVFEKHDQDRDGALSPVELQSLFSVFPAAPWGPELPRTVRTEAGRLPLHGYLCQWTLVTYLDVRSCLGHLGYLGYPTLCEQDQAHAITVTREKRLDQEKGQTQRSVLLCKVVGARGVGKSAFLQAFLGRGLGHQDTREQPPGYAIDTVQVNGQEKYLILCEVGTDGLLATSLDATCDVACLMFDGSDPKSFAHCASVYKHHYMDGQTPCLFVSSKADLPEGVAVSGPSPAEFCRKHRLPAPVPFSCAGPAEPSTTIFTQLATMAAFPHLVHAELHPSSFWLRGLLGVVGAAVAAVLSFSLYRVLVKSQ
Sequence of SYNM (human) (O15061 whole entry): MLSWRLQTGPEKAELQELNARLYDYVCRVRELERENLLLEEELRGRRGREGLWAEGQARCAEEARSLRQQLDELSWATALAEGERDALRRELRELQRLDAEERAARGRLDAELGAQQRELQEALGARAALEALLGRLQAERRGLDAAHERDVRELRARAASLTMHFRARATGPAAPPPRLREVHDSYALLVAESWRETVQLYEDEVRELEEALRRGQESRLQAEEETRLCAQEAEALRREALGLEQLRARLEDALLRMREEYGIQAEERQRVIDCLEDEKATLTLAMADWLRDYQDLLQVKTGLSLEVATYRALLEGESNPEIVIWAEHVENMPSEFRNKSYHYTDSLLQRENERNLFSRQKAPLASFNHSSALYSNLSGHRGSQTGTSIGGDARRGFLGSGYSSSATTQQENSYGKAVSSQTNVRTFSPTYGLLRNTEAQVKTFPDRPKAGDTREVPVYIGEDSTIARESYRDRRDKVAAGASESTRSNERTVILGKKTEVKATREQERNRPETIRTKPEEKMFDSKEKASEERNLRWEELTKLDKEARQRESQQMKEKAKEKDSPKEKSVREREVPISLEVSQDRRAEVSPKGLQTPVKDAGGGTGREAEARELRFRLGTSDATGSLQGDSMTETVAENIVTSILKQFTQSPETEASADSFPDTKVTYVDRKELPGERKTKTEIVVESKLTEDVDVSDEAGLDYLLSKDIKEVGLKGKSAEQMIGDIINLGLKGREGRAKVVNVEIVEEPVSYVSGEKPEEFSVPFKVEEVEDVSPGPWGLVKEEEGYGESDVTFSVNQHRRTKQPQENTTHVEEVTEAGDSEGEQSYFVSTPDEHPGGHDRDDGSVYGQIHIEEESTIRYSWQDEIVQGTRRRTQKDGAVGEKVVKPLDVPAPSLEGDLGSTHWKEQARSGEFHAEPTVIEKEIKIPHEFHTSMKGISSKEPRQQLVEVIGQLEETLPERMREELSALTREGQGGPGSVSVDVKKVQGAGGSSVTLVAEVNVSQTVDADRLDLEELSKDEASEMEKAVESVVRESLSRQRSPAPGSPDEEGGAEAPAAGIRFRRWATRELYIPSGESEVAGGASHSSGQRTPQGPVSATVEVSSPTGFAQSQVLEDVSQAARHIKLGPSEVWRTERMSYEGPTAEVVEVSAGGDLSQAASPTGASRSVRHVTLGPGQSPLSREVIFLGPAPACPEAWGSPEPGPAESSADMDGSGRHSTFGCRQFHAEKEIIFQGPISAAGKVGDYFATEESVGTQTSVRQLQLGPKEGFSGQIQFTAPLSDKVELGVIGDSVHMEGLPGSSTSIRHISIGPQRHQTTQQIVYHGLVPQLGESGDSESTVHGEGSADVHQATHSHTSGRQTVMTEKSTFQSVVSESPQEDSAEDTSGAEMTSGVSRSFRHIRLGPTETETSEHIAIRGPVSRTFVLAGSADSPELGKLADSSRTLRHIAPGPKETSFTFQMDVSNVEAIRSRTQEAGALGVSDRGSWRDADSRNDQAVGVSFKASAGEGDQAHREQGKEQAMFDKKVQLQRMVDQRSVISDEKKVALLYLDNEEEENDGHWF
Sequence of CHCHD3 (human) (Q9NX63 2-227 limits assumed): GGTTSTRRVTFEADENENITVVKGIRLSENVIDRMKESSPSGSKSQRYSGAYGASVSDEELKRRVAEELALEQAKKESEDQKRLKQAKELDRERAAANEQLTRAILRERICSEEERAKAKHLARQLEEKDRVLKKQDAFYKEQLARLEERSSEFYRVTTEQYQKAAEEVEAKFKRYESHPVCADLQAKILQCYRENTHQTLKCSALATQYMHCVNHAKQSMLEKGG
Sequence of CASP14 (human) (P31944 whole entry): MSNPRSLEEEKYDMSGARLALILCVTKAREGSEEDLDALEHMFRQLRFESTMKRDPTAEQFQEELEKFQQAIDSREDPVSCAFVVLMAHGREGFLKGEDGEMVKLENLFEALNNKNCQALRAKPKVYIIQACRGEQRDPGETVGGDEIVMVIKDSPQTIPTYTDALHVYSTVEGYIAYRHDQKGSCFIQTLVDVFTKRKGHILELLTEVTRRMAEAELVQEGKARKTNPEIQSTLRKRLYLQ
Sequence of S100A7 (human) (P31151 2-101 limits assumed): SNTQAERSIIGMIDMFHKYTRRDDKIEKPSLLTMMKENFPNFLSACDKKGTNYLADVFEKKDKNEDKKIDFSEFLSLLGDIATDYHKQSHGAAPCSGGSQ
Sequence of CCT3 (human) (P49368 whole entry): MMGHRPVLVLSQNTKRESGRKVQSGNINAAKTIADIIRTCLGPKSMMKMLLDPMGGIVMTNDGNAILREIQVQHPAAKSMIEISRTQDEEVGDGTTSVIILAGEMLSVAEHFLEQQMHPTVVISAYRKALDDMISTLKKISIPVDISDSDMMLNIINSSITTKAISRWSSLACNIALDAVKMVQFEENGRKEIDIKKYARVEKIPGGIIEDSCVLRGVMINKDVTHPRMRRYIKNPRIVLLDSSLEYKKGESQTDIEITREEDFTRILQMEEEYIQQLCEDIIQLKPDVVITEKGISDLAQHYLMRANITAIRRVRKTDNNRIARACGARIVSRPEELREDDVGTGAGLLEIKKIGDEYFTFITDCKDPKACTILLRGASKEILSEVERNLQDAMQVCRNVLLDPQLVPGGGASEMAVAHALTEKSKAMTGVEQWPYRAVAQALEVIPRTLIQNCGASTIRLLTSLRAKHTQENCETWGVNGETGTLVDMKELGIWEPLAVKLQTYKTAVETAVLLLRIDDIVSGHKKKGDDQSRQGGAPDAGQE
Sequence of YBX1 (human) (P67809 2-324 limits assumed): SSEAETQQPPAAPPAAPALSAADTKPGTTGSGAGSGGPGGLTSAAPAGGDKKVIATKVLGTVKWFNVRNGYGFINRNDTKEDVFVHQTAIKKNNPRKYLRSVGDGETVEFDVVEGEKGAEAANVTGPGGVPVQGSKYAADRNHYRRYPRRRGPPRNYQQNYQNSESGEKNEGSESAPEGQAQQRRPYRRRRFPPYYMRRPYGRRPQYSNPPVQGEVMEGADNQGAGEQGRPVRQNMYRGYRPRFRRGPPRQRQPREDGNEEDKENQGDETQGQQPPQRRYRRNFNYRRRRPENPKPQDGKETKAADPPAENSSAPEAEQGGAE
Sequence of CALML5 (human) (Q9NZT1 2-146 limits assumed): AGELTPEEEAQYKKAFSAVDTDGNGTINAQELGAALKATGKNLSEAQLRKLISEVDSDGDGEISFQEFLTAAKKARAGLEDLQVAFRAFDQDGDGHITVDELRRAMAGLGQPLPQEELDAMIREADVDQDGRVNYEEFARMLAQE
Sequence of IL13RA2 (human) (Q14627 27-380 limits assumed): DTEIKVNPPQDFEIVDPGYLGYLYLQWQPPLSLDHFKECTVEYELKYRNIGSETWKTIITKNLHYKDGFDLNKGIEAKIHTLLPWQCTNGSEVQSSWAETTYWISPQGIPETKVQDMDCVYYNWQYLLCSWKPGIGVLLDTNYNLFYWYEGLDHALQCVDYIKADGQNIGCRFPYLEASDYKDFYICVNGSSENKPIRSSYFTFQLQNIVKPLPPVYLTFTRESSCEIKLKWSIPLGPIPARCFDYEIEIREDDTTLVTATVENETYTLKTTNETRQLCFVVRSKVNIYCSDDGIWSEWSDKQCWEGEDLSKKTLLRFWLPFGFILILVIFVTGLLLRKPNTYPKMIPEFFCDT
Sequence of GSN (human) (P06396 28-782 limits assumed): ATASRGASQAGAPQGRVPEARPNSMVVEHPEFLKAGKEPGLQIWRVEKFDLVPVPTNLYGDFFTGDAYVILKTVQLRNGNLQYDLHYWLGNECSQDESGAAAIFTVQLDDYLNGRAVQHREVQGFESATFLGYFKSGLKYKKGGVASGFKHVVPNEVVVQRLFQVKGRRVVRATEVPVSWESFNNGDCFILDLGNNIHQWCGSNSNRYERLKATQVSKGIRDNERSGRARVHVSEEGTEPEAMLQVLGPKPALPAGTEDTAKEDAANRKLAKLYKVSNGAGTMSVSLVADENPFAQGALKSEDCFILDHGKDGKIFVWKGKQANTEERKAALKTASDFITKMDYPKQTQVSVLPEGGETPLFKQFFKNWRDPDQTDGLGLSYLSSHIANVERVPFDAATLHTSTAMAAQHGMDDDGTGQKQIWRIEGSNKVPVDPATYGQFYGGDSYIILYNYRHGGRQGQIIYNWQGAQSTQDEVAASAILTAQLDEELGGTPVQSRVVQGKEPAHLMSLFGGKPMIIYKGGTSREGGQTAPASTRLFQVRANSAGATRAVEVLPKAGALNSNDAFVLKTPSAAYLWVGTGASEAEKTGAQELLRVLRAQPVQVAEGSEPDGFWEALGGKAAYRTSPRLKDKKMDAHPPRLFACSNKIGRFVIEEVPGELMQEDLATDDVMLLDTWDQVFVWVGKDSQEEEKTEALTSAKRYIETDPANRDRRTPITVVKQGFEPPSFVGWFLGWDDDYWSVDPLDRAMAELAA

IgG control (Millipore Sigma 12-371) (antibody)
co-IP mass spectrometry count (CASP14 (human)): 3 | co-IP mass spectrometry count (RPS7 (human)): 2 | co-IP mass spectrometry count (CALML5 (human)): 0 | co-IP mass spectrometry count (CCT3 (human)): 0 | co-IP mass spectrometry count (CHCHD3 (human)): 11 | co-IP mass spectrometry count (DDX1 (human)): 5 | co-IP mass spectrometry count (DHX9 (human)): 0 | co-IP mass spectrometry count (EIF3A (human)): 0 | co-IP mass spectrometry count (FLG (human)): 15 | co-IP mass spectrometry count (GBF1 (human)): 0 | co-IP mass spectrometry count (GSN (human)): 0 | co-IP mass spectrometry count (IL13RA2 (human)): 0 | co-IP mass spectrometry count (IMMT (human)): 16 | co-IP mass spectrometry count (KCTD5 (human)): 0 | co-IP mass spectrometry count (LCN1 (human)): 6 | co-IP mass spectrometry count (LGALS7B (human)): 3 | co-IP mass spectrometry count (MAP4 (human)): 0 | co-IP mass spectrometry count (RACK1 (human)): 0 | co-IP mass spectrometry count (RHOT2 (human)): 0 | co-IP mass spectrometry count (RPL23 (human)): 4 | co-IP mass spectrometry count (RPL28 (human)): 3 | co-IP mass spectrometry count (RPL38 (human)): 6 | co-IP mass spectrometry count (RPL8 (human)): 3 | co-IP mass spectrometry count (RPS26 (human)): 0 | co-IP mass spectrometry count (RPS27A (human)): 14 | co-IP mass spectrometry count (S100A7 (human)): 3 | co-IP mass spectrometry count (SERPINB3 (human)): 2 | co-IP mass spectrometry count (SYNM (human)): 2 | co-IP mass spectrometry count (SYNPO (human)): 4 | co-IP mass spectrometry count (TBL2 (human)): 0 | co-IP mass spectrometry count (YBX1 (human)): 5 | co-IP mass spectrometry count (YTHDF2 (human)): 2
